From IntAct's records for PubMed 15933069

Assays:
[1] = target: T1, kmt5a_human KMT5A (UniProt Q9NQR1)
T1 sequence: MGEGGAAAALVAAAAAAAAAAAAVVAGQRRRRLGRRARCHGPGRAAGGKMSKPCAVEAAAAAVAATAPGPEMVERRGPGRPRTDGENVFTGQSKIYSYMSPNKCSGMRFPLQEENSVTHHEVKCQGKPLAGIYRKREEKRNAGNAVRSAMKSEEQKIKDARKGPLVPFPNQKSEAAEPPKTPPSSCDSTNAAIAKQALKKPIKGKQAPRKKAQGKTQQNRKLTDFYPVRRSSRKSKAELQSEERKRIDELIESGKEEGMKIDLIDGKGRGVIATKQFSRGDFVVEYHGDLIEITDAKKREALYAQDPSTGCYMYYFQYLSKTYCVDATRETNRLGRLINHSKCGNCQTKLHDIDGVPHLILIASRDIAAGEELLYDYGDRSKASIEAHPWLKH

[2] = target: T1, kmt5a_human KMT5A; remark: listed apart in the source

| effect of a mutation on the interaction [1] | effect of a mutation on the interaction [2] | Substance |
| --- | --- | --- |
| decreasing interaction | – | Histone H4 (Homo sapiens) (from UniProt P62805) H19A |
| – | decreasing interaction | Histone H4 (Homo sapiens) (from UniProt P62805) H19Q |
| – | decreasing interaction | Histone H4 (Homo sapiens) (from UniProt P62805) H19Y |
